The record followed here is patent publication US20240252641A1 (TCR2 THERAPEUTICS, published 2024).

The target of assay [1] is T1, CD70 on cells (CHO-CD70, JVM-3, U266, Raji, THP-1, T cells) (human, UniProt P32970 1-193).
T1 construct: whole, on cells; also called cell-surface CD70
T1 sequence (looked up): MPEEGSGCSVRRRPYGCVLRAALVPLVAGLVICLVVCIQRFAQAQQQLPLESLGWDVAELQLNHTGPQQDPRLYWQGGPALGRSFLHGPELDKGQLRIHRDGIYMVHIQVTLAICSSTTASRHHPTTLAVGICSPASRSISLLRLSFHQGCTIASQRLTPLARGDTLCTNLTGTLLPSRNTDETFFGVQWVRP
Briefly: on Raji cells.

Assay [2] deals with T1, CD70 on cells (CHO-CD70, JVM-3, U266, …). Kind of assay: on U266 cells.
For assay [3] the target is unchanged. Briefly: on JVM-3 cells.
In assay [4] the target is T2, CD70 (UniProt P32970 39-193, limits assumed).
T2 construct: also called CD70 (100 nM)
T2 sequence (looked up): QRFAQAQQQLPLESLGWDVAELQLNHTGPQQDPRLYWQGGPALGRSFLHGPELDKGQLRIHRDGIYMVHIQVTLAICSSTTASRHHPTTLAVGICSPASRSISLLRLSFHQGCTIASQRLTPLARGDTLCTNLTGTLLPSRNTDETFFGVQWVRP
Kind of assay: Octet (BLI); hybridoma mAb, CD70 at 100 nM. For orientation: In BLI a coated tip is dipped into the sample, and binding shifts an interference pattern.

For assay [5], the target named is T2, CD70. Kind of assay: Octet (BLI); mAb binding to CD70 with CD27 (competitor CD27).
Assay [6] addresses T3, human CD70, recombinant, N-terminally biotinylated (residues 39-193) (human, UniProt P32970 39-193, N-terminal biotin).
T3 construct: range 39-193; the same entry is used there; also called biotinylated human CD70; CD70 biotin
T3 sequence (looked up): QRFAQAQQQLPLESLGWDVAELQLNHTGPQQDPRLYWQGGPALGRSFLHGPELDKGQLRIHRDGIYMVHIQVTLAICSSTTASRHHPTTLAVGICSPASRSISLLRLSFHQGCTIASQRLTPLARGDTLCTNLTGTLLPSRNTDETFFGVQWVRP
Briefly: CD27 blocking ELISA, 3 µM scFv, strep/HRP.

The target of assay [7] is T1, CD70 on cells (CHO-CD70, JVM-3, U266, …). Kind of assay: 1.25 µg/mL scFv on CHO-CD70 cells. In short, it runs like this: (§1)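 Tumour cell lines with high CD70 expression (CHO-CD70, JVM3, U266) or low CD70 expression (CHO WT, K562) were used to assess cell binding of human scFv antibodies, with results recorded per line. These antibodies had been selected by panning a naïve human library on the CD70 extracellular domain (aa39-193).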

Assay [8] deals with T3, human CD70, recombinant, N-terminally …. Briefly: CD27 blocking ELISA, 3 µM scFv, anti-His/HRP. The procedure, abridged:
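Plate-bound CD70 was either exposed to CD27 and His-tagged scFv added together, or pre-incubated with CD27 for 30 minutes before more CD27 and scFv were added. scFv still bound to CD70 was detected with anti-His HRP.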
On the technique in general: In an ELISA, binding on a coated surface is turned into a signal by an enzyme label.

Assay [9] has the same target. Kind of assay: SPR. In short, it runs like this: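 Human scFv antibodies came from panning a naïve human library against the CD70 extracellular domain (aa39-193). Their affinity (Kd) for recombinant, N-terminally biotinylated human CD70 was measured by surface plasmon resonance (SPR) analysis.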
Background: SPR reads the build-up and loss of mass on a sensor chip optically.

In assay [10] the target is T1, CD70 on cells (CHO-CD70, JVM-3, U266, …). Briefly: 1.25 µg/mL scFv on JVM-3 cells. The procedure, abridged: as §1
For assay [11] the target is unchanged. Briefly: 1.25 µg/mL scFv on U266 cells. In short, it runs like this:
as §1

B1: 9A1 (antibody, V domains shown)
VH: QVQLVQSGAEVKKPGASVKVSCKASGYSFTGYYMHWVRQAPGQGLEWMGWINPKSGGTSYAQQFQGRVTMTRDTSMSTVYMELTRLRADDTAVYYCARLYYSGWYGDYWGQGTLVTVSS
VL: DIQMTQSPSSLSASVGDRVTITCQASQDINNYLNWYQQKPGKVPNLLIYDASNLETGVPSRFSGSGSGTDFTFTISSLQPEDIATYYCQQYNNPPITFGQGTRLEIK
notes: alloy mouse hybridoma antibody; also called 9A1H6
As to B1, the cell binding in assay [1] was 139000; in assay [2] it was 324000; in [3] it was 401000.

B2: 2F1 (antibody, V domains shown)
VH: EVQLVESGGVVVQPGGSLRLSCAASGFTFDDYTMHWVRQAPGKGLEWVSLVSWDGGSTYYADSVKGRFTTSRDNSKKFLYLQMNRLRTEDTALYFCAIDRAYRPYYYYHMDVWGKGTTVTVSS
VL: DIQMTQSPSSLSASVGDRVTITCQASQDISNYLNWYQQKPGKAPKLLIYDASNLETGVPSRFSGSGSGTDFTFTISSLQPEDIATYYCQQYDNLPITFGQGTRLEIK
notes: alloy mouse hybridoma antibody; also called 2F1F7
B2: the cell binding in [1] turned out to be 12100; in assay [2] it was 30600; in assay [3], 31600.

B3: 9B2 (antibody, V domains shown)
VH: QLQVVESGGGLMQPGGSLRLSCAASGFTFSGSAMSWVRQAPGKGLEWVSSIYSHSMYTYYADSVKSRFTISTDNAKNTLYLQMNSLKPDDTAVYYCAASSDYEGLFVSWGQGTQVTVSS
VL: QAVLTQPPSLSASPGSSVRLTCTLNSANSVGSYDISWYQQKAGSPPRYLLYYYSDSLSHQGSGVPSRFSGSTDASANAGLLLISGLQPEDEADYYCSAYNRGSHVFGGGTKLTVL
Regarding B3, the cell binding in assay [1] was found to be 7310; in assay [2], 8040; in assay [3] it was 8940.

B4: 13G6 (antibody, V domains shown)
VH: QVQLVESGGGVVQPGKSLRLSCAASGFTFSNYGIHWVRQAPGKGLEWVAVIWYDGSYKYYADSVKGRFTISRDNSKNTLYLQMNSLRAEDTALYYCARDTVDTYGSFDYWGQGTLVTVSS
VL: DIQLTQSPSFLSASVGDRVTITGRASQGISSYLAWYQQKPGKAPNLLIYAASTLQSGVPSRFSGSGSGTEFTLTISSLQPEDFATYYCQQHNRYPITFGQGTRLEIK
notes: alloy mouse hybridoma antibody; also called 13G6E8
For B4, the figures for the cell binding in assay [1], in assay [2] and in assay [3] were 144000, 389000 and 479000, respectively.

B5: 4G7 (antibody, V domains shown)
VH: QVQLVESGGGVVQPGRSLRLSCAASGFTFSSYGLHWVRQAPGKGLDWVAVIWYDGSNKYYVDSVKGRFTISRDNSMNTLFLQMNSLRAEDTAVYYCARDEAAAAGAFDIWGQGTMVTVSS
VL: DIQLTQSPSFLSASVGDRVTITCRASQGISSYLAWYQQKPGKAPKLLIYAASTLQSGVPSRFSGSGSGTEFTLTISSLQPEDFATYYCQQLNYYSITFGQGTRLEIK
notes: alloy mouse hybridoma antibody; also called 4G7E8
As to B5, the cell binding in assay [1] was 103000; in [2], 310000; in assay [3], 322000.

B6: 13G6 (antibody, V domains shown)
VH: QVQLVESGGGVVQPGKSLRLSCAASGFTFSNYGIHWVRQAPGKGLEWVAVIWYDGSYKYYADSVKGRFTISRDNSKNTLYLQMNSLRAEDTALYYCARDTVDTYGSFDYWGQGTLVTVSS
VL: DIQLTQSPSFLSASVGDRVTITGRASQGISSYLAWYQQKPGKAPNLLIYAASTLQSGVPSRFSGSGSGTEFTLTISSLQPEDFATYYCQQHNRYPITFGQGTRLEIK
notes: IgG in hybridoma supernatant; also called 13G6E8
With B6, in assay [4], the Kd (in general, a measure of binding affinity in units of concentration) turned out to be 0.00342 nM; the Response was 0.409; the koff (usually a measure of how fast the partners let go of each other) was 3.3e-07 s⁻¹; the kon (in general, a measure of how fast the partners come together) amounted to 96400 M⁻¹ s⁻¹. Further, the “CD27:CD70 Interaction Neutralization of mAb Binding” value in assay [5] stood at 0.0585.

B7: 9A11 (antibody, V domains shown)
VH: QVQLVESGGGVVQPGRSLRLSCAASGFTFSNYGMYWVRQAPGKGLEWVAVIWYDGSKKYYGDSVKGRFTISRDNSKNTLYLQMNSLRAEDTAVYYCARDEDTVMASFDYWGQGTLVTVSS
VL: DIQLTQSPSFLSASVGDRVTITCRASQDISIYLAWYQQKPGKAPQLLIYAASTLQSGVPSRFSGSGSGTEFTLTISSLQPEDFATYSCQQLNSYPITFGGGTKVEIK
notes: alloy mouse hybridoma antibody; also called 9A11E8
With B7, the cell binding in assay [1] is 145000; in [2], 351000; in assay [3], 410000.

B8: 9A11 (9A11E8) (antibody, V domains shown)
VH: QVQLVESGGGVVQPGRSLRLSCAASGFTFSNYGMYWVRQAPGKGLEWVAVIWYDGSKKYYGDSVKGRFTISRDNSKNTLYLQMNSLRAEDTAVYYCARDEDTVMASFDYWGQGTLVTVSS
VL: DIQLTQSPSFLSASVGDRVTITCRASQDISIYLAWYQQKPGKAPQLLIYAASTLQSGVPSRFSGSGSGTEFTLTISSLQPEDFATYSCQQLNSYPITFGGGTKVEIK
notes: IgG in hybridoma supernatant
On to B8, for which, in assay [4], the Kd turned out to be 0.00246 nM, the Response was 0.429, the koff amounted to 3.36e-07 s⁻¹ and the kon turned out to be 137000 M⁻¹ s⁻¹. For the same molecule, in assay [5], the “CD27:CD70 Interaction Neutralization of mAb Binding” value was 0.0777.

B9: 15F8 (antibody, V domains shown)
VH: EVQLVESGGGVVRPGGSLRLSCAASGFTFDDYGVSWVRQAPGRGLEWVSGINWNGGSTAYADSVKGRFTISRDSAKNSLYLQMDSLRAEDTALYYCAREEGSYYVWYFDIWGRGTLVTVSS
VL: DIQMTQSPSSLSASVGDRVTITCRPSQSISNYLNWYQQKPGKAPKVLIYASFILQSGVPSRFGGSGSGTDFTLTISSLQPEDFATYYCQQSYSNPFTFGPGTKVDIK
notes: alloy mouse hybridoma antibody; also called 15F8D8; 15F8D9
Regarding B9, the cell binding in assay [1] was found to be 85100; in assay [2], 213000; in assay [3], 234000.

B10: 13-TC7-I-E11 (scFv)
scFv: QVQLQQWGAGLLKPSETLSLTCAVYGGSFSGYYWSWIRQPPGKGLEWIGEINHSGSTNYNPSLKSRVTISVDTSKNQFSLKLSSVTAADTAVYYCARSRRPYWYFDLWGRGTLVTVSSGGSGGSGGSGGSQSVLTQPPSVSGAPGQRVTISCTGSSSNIGAGYDVHWYQQLPGTAPKLLIYGDSNRPSGVPDRFSGSGSGTSASLAITGLQAEDEGDYYCQSFDSNLSRYVFGAGTKLTVL
notes: His-tagged
For B10, in assay [6], the strep/HRP was determined as 1.42. Moreover, the results for the cell binding in assay [7], in [10] and in assay [11] were 532000, 80500 and 32000, respectively. Besides, the “anti His/HRP” value in assay [8] was 2.29. Further, the Kd in [9] stood at 44.7 nM.

B11: 1-TC4-I-C10 (scFv)
scFv: EVQLVQSGAEVKKPGESLKISCKGSGYSFTSYWIGWVRQMPGKGLEWMGIIYPGDSDTRYSPSFQGQVTISADKSISTAYLQWSSLKASDTAMYYCAISRTESYVMDVWGQGTTVTVSSGGSGGSGGSGGSQSALTQPRSVSGSPGQSVTISCTGTSSDVGGYNYVSWYQQHPGKAPKLMIYDVTNRPSGVPDRFSASKSDNTATLTVSGVQAEDEADYYCSSYAGSHELFGGGTKLTVL
notes: His-tagged; also called 1867
For B11, the strep/HRP in assay [6] is 0.075. Further, the cell binding in [7] was 978000; in assay [10] it was 73300; in [11], 48800. For the same molecule, in assay [8], the “anti His/HRP” value amounted to 2.83. Further, the Kd in assay [9] came out at 6.17 nM.

B12: 1E3 (antibody, V domains shown)
VH: QLQLQESGPGLVKPSETLSLTCTVSGASITSTSYYWNWIRQPPGKGLEWIGRISYSGSTYYNPSLKSRVTISVDTSKNQFSLKLSSVTATDTAVYYCARQIRYNWNPDTFDIWGQGTMVTVSS
VL: EIVMTQSPATLSVSPGERATLSCRASQSLNSNLAWYQQKPAQAPRLLIYGASTRATGIPARFSGSGSGTEFTLTISSLQSEDFAVYYCQQYDNWPLTFGGGTKVEIK
notes: alloy mouse hybridoma antibody; also called 1E3D9
Take B12: the cell binding in assay [1] stood at 38800; in assay [2], 106000; in [3], 121000.
